± gives the uncertainty stated by the source.
Experiment: self-splicing fitness, log relative to wild type (ln ratio); higher = more splicing; Tetrahymena group I intron in knt gene, E. coli kanamycin selection, DiMSum; sequences stand for … in CUCUCU…GGAGGGAAAAGUUAUCAGGCAUGCACCUGGUAGCUAGUCUUUAAACCAAUAGAUUGCAUCGGUUUAAAAGGCAAGACCGUCAAAUUGCGGGAAAGGGGUCAACAGCCGUUCAGUACCAAGUCUCAGGGGAAACUUUGAGAUGGCCUUGCAAAGGGUAUGGUAAUAAGCUGACGGACAUGGUCCUAACCACGCAGCCAAGUCCUAAGUCAACAGAUCUUCUGUUGAUAUGGAUGCAGUUCACAGACUAAAUGUCGGUCGGGGAAGAUGUAUUCUUCUCAUAAGAUAUAGUCGGACCUCUCCUUAAUGGGAGCUAGCGGAUGAAGUGAUGCAACACUGGAGCCGCUGGGAACUAAUUUGUAUGCGAAAGUAUAUUGAUUAGUUUUGGAGUACUCGUGGUCG
Summary of the method: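 Six replicate transformations of E. coli BL21(DE3) with a pET-22b(+) library were grown overnight at 37°C or 30°C. The library randomised all eight P1ex-region intron nucleotides, the intron lying in the knt kanamycin-resistance gene, and plates were LB agar with or without 25 μg/mL kanamycin plus 100 μg/mL carbenicillin, 50 μM IPTG and 0.2% rhamnose. Pooled colonies were amplicon-sequenced on an Illumina HiSeq 2500, and fitness is the DiMSum error-weighted combination of wild-type-normalised replicate fold changes, kanamycin versus none.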

Row | Sequence | self-splicing fitness (ln) (30 °C) | self-splicing fitness (ln) (37 °C)
1 | UACCAGCAAUAUUACGUCUA | 0.0647 ± 0.067 | 0.41 ± 0.086
2 | UACCAGCAAUAUUACGUCUC | -2.4 ± 0.14 | -2.26 ± 0.18
3 | UACCAGCAAUAUUACGUUCA | -0.401 ± 0.06 | 0.27 ± 0.08
4 | UACCAGCAAUAUUACGUUUG | -3.36 ± 0.12 | -2.43 ± 0.13
5 | UACCAGCAAUAUUACGUUUU | -1.51 ± 0.094 | -2.37 ± 0.15
6 | UACGAGCAAUAUUACGAAAC | -2.05 ± 0.48 | –
7 | UACGAGCAAUAUUACGAACG | -2.96 ± 0.26 | -2.05 ± 0.16
8 | UACGAGCAAUAUUACGACUA | -0.65 ± 0.085 | -0.167 ± 0.1
9 | UACGAGCAAUAUUACGACUG | -0.684 ± 0.24 | -1.35 ± 0.17
10 | UACGAGCAAUAUUACGAUAA | -2.9 ± 0.16 | -2.05 ± 0.16
11 | UACGAGCAAUAUUACGAUUG | -3.62 ± 0.25 | -0.584 ± 0.2
12 | UACGAGCAAUAUUACGCAGC | -3.16 ± 0.34 | -3.83 ± 0.46
13 | UACGAGCAAUAUUACGCGAA | -2.89 ± 0.32 | -2.72 ± 0.26
14 | UACGAGCAAUAUUACGCUCA | -1.46 ± 0.15 | -0.952 ± 0.2
15 | UACGAGCAAUAUUACGGAAG | -3.5 ± 0.24 | -2.26 ± 0.37
16 | UACGAGCAAUAUUACGGACU | -2.36 ± 0.23 | –
17 | UACGAGCAAUAUUACGGGAA | -1.91 ± 0.2 | -2.85 ± 0.4
18 | UACGAGCAAUAUUACGGGGG | -4.08 ± 0.29 | -3.14 ± 0.34
19 | UACGAGCAAUAUUACGGGGU | -3.05 ± 0.14 | -2.28 ± 0.14
20 | UACGAGCAAUAUUACGGUAG | -2.97 ± 0.14 | -2.35 ± 0.17
21 | UACGAGCAAUAUUACGGUAU | -3.12 ± 0.26 | -3.28 ± 0.3
22 | UACGAGCAAUAUUACGUCUG | -1.51 ± 0.1 | -1.34 ± 0.11
23 | UACGAGCAAUAUUACGUGCU | -3.9 ± 0.23 | -2.4 ± 0.19
24 | UACGAGCAAUAUUACGUGGU | -2.86 ± 0.15 | -1.87 ± 0.23
25 | UACGAGCAAUAUUACGUGUC | -3.32 ± 0.17 | -2.83 ± 0.28
26 | UACGAGCAAUAUUACGUUAG | -3.03 ± 0.17 | -2.32 ± 0.19

Row | Sequence | self-splicing fitness (ln) (30 °C) | self-splicing fitness (ln) (37 °C)
27 | UACGAGCAAUAUUACGUUCC | -2.83 ± 0.36 | –
28 | UACGAGCAAUAUUACGUUGA | -3.2 ± 0.24 | -2.73 ± 0.23
29 | UACUAGCAAUAUUACGACAG | -1.04 ± 0.1 | -0.806 ± 0.13
30 | UACUAGCAAUAUUACGACUA | 0.113 ± 0.097 | 0.792 ± 0.11
31 | UACUAGCAAUAUUACGAGGC | -3.01 ± 0.17 | -2.27 ± 0.23
32 | UACUAGCAAUAUUACGAUGU | -3.42 ± 0.27 | -1.74 ± 0.22
33 | UACUAGCAAUAUUACGCCGG | -1.68 ± 0.18 | -0.8 ± 0.17
34 | UACUAGCAAUAUUACGCGAC | -2.29 ± 0.25 | -2.29 ± 0.3
35 | UACUAGCAAUAUUACGCGCG | -0.375 ± 0.12 | -0.0222 ± 0.12
36 | UACUAGCAAUAUUACGCUGA | -2.48 ± 0.16 | -1.37 ± 0.15
37 | UACUAGCAAUAUUACGCUUC | -2.88 ± 0.17 | -1.66 ± 0.26
38 | UACUAGCAAUAUUACGGAAU | -4.58 ± 0.39 | -2.95 ± 0.23
39 | UACUAGCAAUAUUACGGCAG | -0.408 ± 0.075 | 0.134 ± 0.12
40 | UACUAGCAAUAUUACGGCGA | -0.849 ± 0.11 | 0.621 ± 0.13
41 | UACUAGCAAUAUUACGGGCG | -0.0495 ± 0.11 | 0.375 ± 0.14
42 | UACUAGCAAUAUUACGGUGC | -3.29 ± 0.26 | -2.04 ± 0.31
43 | UACUAGCAAUAUUACGGUUA | -0.377 ± 0.1 | 0.35 ± 0.12
44 | UACUAGCAAUAUUACGGUUU | -1.41 ± 0.1 | -0.44 ± 0.12
45 | UACUAGCAAUAUUACGUAUA | -2.31 ± 0.29 | -1.19 ± 0.21
46 | UACUAGCAAUAUUACGUCAU | -2.66 ± 0.2 | -1.74 ± 0.13
47 | UACUAGCAAUAUUACGUCCG | -0.327 ± 0.12 | 0.11 ± 0.14
48 | UACUAGCAAUAUUACGUCGA | -2.11 ± 0.12 | -0.821 ± 0.12
49 | UACUAGCAAUAUUACGUGAA | -2.19 ± 0.11 | -1.18 ± 0.13
50 | UACUAGCAAUAUUACGUUUA | -2.47 ± 0.16 | -1.05 ± 0.12
51 | UAGAAGCAAUAUUACGACCA | -0.67 ± 0.094 | -0.157 ± 0.12
52 | UAGAAGCAAUAUUACGAUAU | -3.44 ± 0.25 | -2.19 ± 0.19

Row | Sequence | self-splicing fitness (ln) (30 °C) | self-splicing fitness (ln) (37 °C)
53 | UAGAAGCAAUAUUACGAUGU | -3.01 ± 0.18 | -1.69 ± 0.19
54 | UAGAAGCAAUAUUACGCCAU | -1.02 ± 0.4 | –
55 | UAGAAGCAAUAUUACGCCCU | -0.743 ± 0.19 | 0.316 ± 0.22
56 | UAGAAGCAAUAUUACGCGCA | -0.327 ± 0.15 | 0.03 ± 0.18
57 | UAGAAGCAAUAUUACGCGCU | -1.28 ± 0.16 | -1.85 ± 0.17
58 | UAGAAGCAAUAUUACGCUGA | – | -1.74 ± 0.2
59 | UAGAAGCAAUAUUACGCUGG | -1.38 ± 0.16 | -0.436 ± 0.18
60 | UAGAAGCAAUAUUACGGACA | -0.547 ± 0.11 | -0.0716 ± 0.13
61 | UAGAAGCAAUAUUACGGACG | -0.286 ± 0.13 | 0.291 ± 0.16
62 | UAGAAGCAAUAUUACGGAGC | – | -3.93 ± 0.46
63 | UAGAAGCAAUAUUACGGAUG | -1.41 ± 0.099 | -0.694 ± 0.12
64 | UAGAAGCAAUAUUACGGCUC | -2.6 ± 0.3 | -0.946 ± 0.3
65 | UAGAAGCAAUAUUACGGGAG | -1.97 ± 0.14 | -1.39 ± 0.12
66 | UAGAAGCAAUAUUACGGGGA | -2.39 ± 0.14 | -0.988 ± 0.12
67 | UAGAAGCAAUAUUACGGGUU | -4.54 ± 0.34 | -1.87 ± 0.2
68 | UAGAAGCAAUAUUACGGUAC | -3.25 ± 0.37 | –
69 | UAGAAGCAAUAUUACGGUGG | -1.84 ± 0.12 | -1.2 ± 0.13
70 | UAGAAGCAAUAUUACGUCAC | -2.92 ± 0.35 | –
71 | UAGAAGCAAUAUUACGUGAU | -2.73 ± 0.11 | -1.84 ± 0.11
72 | UAGAAGCAAUAUUACGUGCG | -0.462 ± 0.082 | -0.125 ± 0.098
73 | UAGAAGCAAUAUUACGUGGA | -2.1 ± 0.13 | -1.92 ± 0.16
74 | UAGCAGCAAUAUUACGAAGG | -2.85 ± 0.12 | -2.21 ± 0.19
75 | UAGCAGCAAUAUUACGACGU | -1.14 ± 0.073 | -0.658 ± 0.1
76 | UAGCAGCAAUAUUACGAGUG | -1.02 ± 0.075 | -0.131 ± 0.075
77 | UAGCAGCAAUAUUACGAGUU | -3.47 ± 0.15 | -1.98 ± 0.14
78 | UAGCAGCAAUAUUACGAUAG | -1.78 ± 0.073 | -1.46 ± 0.1
